Reference: PMC4690531 (Cell, 2010)
Entries after “also recorded” stand apart in the source; their conditions may differ. No end group written: not given here.

What was measured:
MLL1 PHD3-Bromo cassette [1] = molecular target: T1, MLL1 PHD3-Bromo cassette (Homo sapiens, UniProt Q03164, DEL1666-1702); test: ITC binding of H3K4me peptides to coexpressed MLL1 PHD3-Bromo cassette; conditions: vs H3K4me3 peptide without added Ala
HOXC8 = test: Anti-HA ChIP of CyP33 binding at HOXC8; assay type: cell-based; conditions: 293T cells, typical for at least three independent experiments
[2] = system: HOXC8 expression in 293T cells; test: HOXC8 expression in transfected 293T cells; assay type: cell-based; conditions: overexpression, real-time PCR, empty vector control
HOXA9 = test: Anti-HA ChIP of CyP33 binding at HOXA9; assay type: cell-based; conditions: 293T cells, typical for at least three independent experiments
[3] = system: HOXA9 expression in 293T cells; test: HOXA9 expression in transfected 293T cells; assay type: cell-based; conditions: overexpression, real-time PCR, empty vector control
[4] = system: HOXC8 locus in K562 cells; conditions: ref Fair et al., 2001; cited from earlier work
H3 acetylation at HOXA9 = test: ChIP with anti-H3 pan acetyl; assay type: cell-based; conditions: 293T cells, overexpression, anti-H3 pan acetyl (AcH3), typical for at least three independent experiments
MLL1 PHD3-Bromo cassette [5] = molecular target: T1, MLL1 PHD3-Bromo cassette; test: Gel filtration complex formation with MLL1 PHD3-Bromo cassette; assay type: binding; conditions: for binding of CyP33 mutants to PHD3-Bromo: in vitro, Figure 4, lines 7 and 11
H3 acetylation at HOXC8 = test: ChIP with anti-H3 pan acetyl; assay type: cell-based; conditions: 293T cells, overexpression, anti-H3 pan acetyl (AcH3), typical for at least three independent experiments
[6] = molecular target: coexpressed MLL1 PHD3-Bromo cassette (residues 1566–1784, with deletion of 1666–1702 ZA loop segment) (human) (UniProt Q03164); test: ITC
[7] = molecular target: complex of MLL1 PHD3-Bromo cassette and full-length CyP33 (UniProt Q03164); test: ITC
[8] = system: MLL1 Bromo alone (1639–1784); test: 1H,15N-HSQC titration of MLL1 Bromo alone with acetyllysine peptides; assay type: binding; conditions: five equivalents of H4(7-17)K12ac or H4(14-19)K16ac, H3K23ac and H3K27ac data not shown
[9] = system: MLL1 PHD3-Bromo cassette (1566–1784); test: 1H,15N-HSQC titration of MLL1 PHD3-Bromo cassette with acetyllysine peptides; assay type: binding; conditions: five equivalents of H4(7-17)K12ac or H4(14-19)K16ac, H3K23ac and H3K27ac data not shown
CyP33 RRM (2–82) = molecular target: T2, CyP33 RRM (2–82) (UniProt Q9UNP9 2-82); test: NMR structure
T2 sequence (looked up): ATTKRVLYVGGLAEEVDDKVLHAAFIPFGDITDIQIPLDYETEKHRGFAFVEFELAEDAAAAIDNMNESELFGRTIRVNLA

CyP33 RRM (1–82) = molecular target: T3, CyP33 RRM (1–82) (UniProt Q9UNP9 1-82); test: NMR titration
T3 sequence (looked up): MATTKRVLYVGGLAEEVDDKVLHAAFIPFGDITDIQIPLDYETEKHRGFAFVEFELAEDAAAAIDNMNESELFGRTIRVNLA

[10] = molecular target: MLL1 PHD3-Bromo Y1581A mutant (human, UniProt Q03164 1566-1665; Q03164 1703-1784, Y1581A); test: ITC
[11] = molecular target: MLL1 PHD3-Bromo Q1587A mutant (human, UniProt Q03164 1566-1665; Q03164 1703-1784, Q1587A); test: ITC
MLL1 PHD3 domain alone = test: Gel filtration complex formation with MLL1 PHD3 alone; assay type: binding
[12] = system: MLL1 PHD3-Bromo mutant, where Pro1629 was replaced by Ala; test: Complex formation with MLL1 PHD3-Bromo Pro1629 to Ala mutant; assay type: binding; conditions: in the absence of CyP33 PPIase domain
MLL1 PHD3 = test: 1H,15N-HSQC Trp1594 indole resonance on sequential addition; assay type: binding; conditions: H3K4me3 first (binary complex), then CyP33 RRM (ternary complex)
MLL1 PHD3 M1606D mutant = test: Complex formation with MLL1 PHD3 M1606D; assay type: binding; conditions: Figure 4, line 10
AU-rich RNAs = conditions: ref Mi et al., 1996; Wang et al., 2008; cited from earlier work
MLL2 PHD3 D1375M mutant = test: Complex formation with MLL2 PHD3 D1375M; assay type: binding; conditions: Figure 4, line 13
MLL2 PHD3 = test: Gel filtration complex formation with MLL2 PHD3; assay type: binding
MLL1 (1566–1639) = test: NMR monitoring of Pro1629 cis-to-trans transition; assay type: binding; conditions: 1H,13C-HSQC

Molecule: C[C@H](N)C(=O)N[C@@H](C)C(=O)N[C@@H](C)C(=O)N[C@@H](C)C(=O)N[C@@H](CCCNC(=N)N)C(=O)N[C@H](C(=O)N[C@@H](CCCC[N+](C)(C)C)C(=O)N[C@@H](CCC(N)=O)C(=O)N[C@H](C(=O)N[C@@H](C)C(=O)N[C@@H](CCCNC(=N)N)C(=O)N[C@@H](CCCCN)C(=O)N[C@@H](CO)C(=O)N[C@H](C(=O)NCC(=O)NCC(=O)N[C@@H](CCCCN)C(=O)N[C@@H](C)C(=O)O)[C@@H](C)O)[C@@H](C)O)[C@@H](C)O [Ala-Ala-Ala tri-peptide]
- increase of dissociation constant on N-terminal extension (MLL1 PHD3-Bromo cassette [1]): 15 fold

Molecule: C[C@H](N)C(=O)N[C@@H](C)C(=O)N[C@@H](CCCNC(=N)N)C(=O)N[C@H](C(=O)N[C@@H](CCCC[N+](C)(C)C)C(=O)N[C@@H](CCC(N)=O)C(=O)N[C@H](C(=O)N[C@@H](C)C(=O)N[C@@H](CCCNC(=N)N)C(=O)N[C@@H](CCCCN)C(=O)N[C@@H](CO)C(=O)N[C@H](C(=O)NCC(=O)NCC(=O)N[C@@H](CCCCN)C(=O)N[C@@H](C)C(=O)O)[C@@H](C)O)[C@@H](C)O)[C@@H](C)O [single Ala]
- increase of dissociation constant on N-terminal extension (MLL1 PHD3-Bromo cassette [1]): 6 fold

Molecule: CyP33: cyclophilin with N-terminal RRM and C-terminal PPIase domain; FLAG-HA-tagged in 293T experiments
- CyP33 binding to HOXC8 (HOXC8): bound to HOXA9 and HOXC8
- HOXC8 repression [2]: reduced
- CyP33 binding to HOXA9 (HOXA9): bound to HOXA9 and HOXC8
- HOXA9 repression [3]: reduced
- repression of HOXC8 locus [4]: repressor of the HOXC8 locus

Molecule: F51D: CyP33 with F51D mutation in the RRM domain
- H3 acetylation at HOXA9 (H3 acetylation at HOXA9): not in cells expressing the F51D; also recorded: unable to deacetylate
- binding of CyP33 mutants to PHD3-Bromo (MLL1 PHD3-Bromo cassette [5]): sufficient to abolish the binding between CyP33 and MLL1 PHD3-Bromo
- CyP33 binding to HOXC8 (HOXC8): variably reduced CyP33 binding; also recorded: only partially disrupted in its ability to bind to HOXA9 and HOXC8
- H3 acetylation at HOXC8 (H3 acetylation at HOXC8): unable to deacetylate
- HOXC8 repression [2]: did not cause any repression of either HOX gene; also recorded: not in cells expressing the F51D; also recorded: unable to deacetylate and repress target genes
- CyP33 binding to HOXA9 (HOXA9): variably reduced CyP33 binding; also recorded: only partially disrupted in its ability to bind to HOXA9 and HOXC8
- HOXA9 repression [3]: did not cause any repression of either HOX gene; also recorded: not in cells expressing the F51D; also recorded: unable to deacetylate and repress target genes

Molecule: F196E/M197E: CyP33 with F196E/M197E double mutation in the PPIase domain
- H3 acetylation at HOXA9 (H3 acetylation at HOXA9): not in cells expressing the F51D (green bars) and F196E/M197E
- binding of CyP33 mutants to PHD3-Bromo (MLL1 PHD3-Bromo cassette [5]): reduced the binding between CyP33 and PHD3-Bromo
- CyP33 binding to HOXC8 (HOXC8): bound to HOXA9 and HOXC8
- HOXC8 repression [2]: did not cause any repression of either HOX gene; also recorded: not in cells expressing the F51D (green bars)or F196E/M197E
- CyP33 binding to HOXA9 (HOXA9): bound to HOXA9 and HOXC8
- HOXA9 repression [3]: did not cause any repression of either HOX gene; also recorded: not in cells expressing the F51D (green bars)or F196E/M197E

Molecule: H3(1-15)K4me1 peptide (from UniProt P68431 2-16)
- Kd [6]: 53 µM

Molecule: H3(1-15)K4me2 peptide (from UniProt P68431 2-16)
- Kd [7]: 15.2 µM
- Kd [6]: 6.9 µM

Molecule: H3(1-15)K4me3 peptide (from UniProt P68431 2-16)
- Kd [7]: 11.6 µM
- Kd [6]: 4.3 µM

Molecule: H3K4me3 peptide with a single Ala added at the N terminus
- Kd [6]: 26 µM

Molecule: H3K4me3 peptide with an Ala-Ala-Ala tripeptide added at the N terminus
- Kd [6]: 64 µM

Molecule: H4(7-17)K12ac: acetylated histone H4 peptide
- complexation shifts, Bromo alone [8]: did not observe any complexation shifts
- complexation shifts, PHD3-Bromo cassette [9]: did not observe any complexation shifts

Molecule: H4(14-19)K16ac: acetylated histone H4 peptide
- complexation shifts, Bromo alone [8]: did not observe any complexation shifts
- complexation shifts, PHD3-Bromo cassette [9]: did not observe any complexation shifts

Molecule: MMQCGKCDRWVHSKCENLSDEMYEILSNLPESVAYTCVNCTERH (domain or fragment, human, UniProt Q03164 1585-1628, looked up) [interacting segment of MLL1 PHD3 (1585–1628)]
- binding result (CyP33 RRM (2–82)): binds

B1: MLL1 (1566–1639) (domain or fragment, human, UniProt Q03164 1566-1639, looked up)
chain: GNFCPLCDKCYDDDDYESKMMQCGKCDRWVHSKCENLSDEMYEILSNLPESVAYTCVNCTERHPAEWRLALEKE
- binding result (CyP33 RRM (1–82)): binds

Molecule: ARTK(Me3)QTARKSTGGKA (peptide, UniProt P68431 2-16, looked up) [H3(1-15)K4me3 peptide]
- binding result [10]: binds
- binding result [11]: binds

B2: CyP33 RRM: RRM domain (1–82) of CyP33 (protein)
chain: T3 sequence (looked up)
- complex formation with PHD3 alone (MLL1 PHD3 domain alone): formed a complex with the PHD3 domain alone
- complex formation with PHD3-Bromo cassette (MLL1 PHD3-Bromo cassette [5]; gel filtration): not with the PHD3-Bromo cassette
- interaction with PHD3-Bromo P1629A [12]: interacted with a PHD3-Bromo mutant
- Trp1594 indole resonance shift on sequential addition (MLL1 PHD3): upfield shift
- complex formation with MLL1 PHD3 M1606D (MLL1 PHD3 M1606D mutant): completely disrupted its complex formation with CyP33 RRM
- RNA preference (AU-rich RNAs): some preference for AU-rich RNAs
- binding to MLL2 PHD3 D1375M (MLL2 PHD3 D1375M mutant): converted MLL2 PHD3 to a CyP33 RRM binding partner
- binding to MLL2 PHD3 (MLL2 PHD3): does not bind CyP33 RRM
- His1628-Pro1629 peptide bond configuration change (MLL1 (1566–1639)): transits from cis-to-trans configuration upon interaction with CyP33 RRM
- Pro1629 Cγ chemical shift upon addition (MLL1 (1566–1639); major cross peak 25.3 ppm (cis) in free state): 27.5 ppm
